Source: US6835378B2, “Method and compositions for inhibiting thrombin-induced coagulation” (The Texas A&M University System University, priority 2001, dated 2004)
“Also recorded” adds a separate entry of the source.

Test system: contortrixobin digestion of Fg
Assay: Fibrinopeptide B release by contortrixobin, HPLC
Assay type: biochemical, human
Details: 1:5 ratio of Fg to rSdrG(50-597) (1.5 μM), 60 min
Protocol: Superimposed chromatograms show the amount of fibrinopeptide released when the Fg-contortrixobin sample has no SdrG present (upper curve) and when the Fg-contortrixobin sample is incubated with 1.5 μM rSdrG(50-597) (lower curve) at the 60 min time point.
Analysis of Fibrinopeptide B Release by HPLC—As in chapter two, we monitored the fibrinopeptide release in the presence of SdrG and the β-fibrinogenase contortrixobin. The HPLC chromatograms shown in FIG. 10 show the expected fibrinopeptide release following digestion of Fg with contortrixobin superimposed with the fibrinopeptide release when Fg and contortrixobin are incubated with rSdrG(50-597). […] This is most likely because FpA is still intact on the Fg molecule, thus contortrixobin is not as effective at cleaving Fg due to steric hindrance from FpA.

B1: rSdrG(50-597): recombinant His-tagged A region (residues 50-597) of SdrG, a fibrinogen-binding MSCRAMM from S. epidermidis (protein)
chain: HHHHHHAEENTVQDVKDSNMDDELSDSNDQSSNEEKNDVINNSQSINTDDDNQIKKEETNSNDAIENRSKDITQSTTNVDENEATFLQKTPQDNTQLKEEVVKEPSSVESSNSSMDTAQQPSHTTINSEASIQTSDNEENSRVSDFANSKIIESNTESNKEENTIEQPNKVREDSITSQPSSYKNIDEKISNQDELLNLPINEYENKVRPLSTTSAQPSSKRVTVNQLAAEQGSNVNHLIKVTDQSITEGYDDSDGIIKAHDAENLIYDVTFEVDDKVKSGDTMTVNIDKNTVPSDLTDSFAIPKIKDNSGEIIATGTYDNTNKQITYTFTDYVDKYENIKAHLKLTSYIDKSKVPNNNTKLDVEYKTALSSVNKTITVEYQKPNENRTANLQSMFTNIDTKNHTVEQTIYINPLRYSAKETNVNISGNGDEGSTIIDDSTIIKVYKVGDNQNLPDSNRIYDYSEYEDVTNDDYAQLGNNNDVNINFGNIDSPYIIKVISKYDPNKDDYTTIQQTVTMQTTINEYTGEFRTASYDNTIAFSTSSGQGQGDLPPE
FpB release by contortrixobin: effectively inhibit FpB release; also recorded: decrease in the amount of FpB released | FpB release by contortrixobin (listed as rSdrG (50-597)): A decrease in the amount of FpB release
